In the RNAGym collection of RNA variant scans (doi:10.1021/acssynbio.7b00057):

B1: Pistol ribozyme (parent)
chain: GGGUCGUUGUUCCAUAAUCGCGUGGAUAUGGCACGCAAGUUUCUACCGGGCACCGUAAAUGUCCGACUGGAGCCGUUCGGGCGGCUAUAAACAGACCUCAGGCCCGAAGCGUGGCGGCACCUGCCGCCGGUGGUAAAAAAGAUCGGAAGAGCACACGUCU

Variants of: B1
Assay: aptazyme ON/OFF ratio, guanine; higher = stronger switching; co-transcriptional cleavage with and without guanine

| Variant | aptazyme ON/OFF ratio |
| --- | --- |
| U7G U8G G9A U11C | 1.54 |
| U7G U8C G9A C12G C13U | 1.03 |
| U8C G9A U10A U11G C13A | 1.19 |
| U7C U8A G9C U10A U11A C12U C13A | 1.05 |
| U7G U8G G9A U10C C12A C13G | 1.14 |
| U7A U8G U10G U11C C12G C13U | 1.56 |
| U7A U8G G9C U10G U11G C13U | 1.31 |
| U7G U8C G9U U10C U11A C12A C13G | 1.31 |
| U8A G9U U10C C13U | 1.15 |
| U8G G9U U11C C12G C13U | 1.13 |
| U7A U8G G9A U11C | 1.33 |
| U7A U8G G9U U10A | 1.18 |
| U7G G9A U10A U11G C12G C13G | 1.14 |
| U7C G9C C12G C13A | 1.04 |
| U7G U8G G9C U10G C12U C13U | 1.09 |
| U7A U8G U11A C12U C13A | 1.5 |
| U7G U8C G9C U10A C12A C13U | 1.05 |
| U7G U8G U10C U11G C13U | 1.47 |
| U7C U8G G9U U10G C12U C13U | 1.32 |
| U7G U8G G9C U10G U11G C12U C13U | 1.17 |
| U7A U8C G9U U10G U11A C12G C13G | 0.993 |
| U7C U8G G9A U10G U11C C12G C13A | 1.2 |
| U8C G9U C12A C13A | 1.28 |
| U7G U8C G9A U10C U11C C12U C13A | 1.04 |

| Variant | aptazyme ON/OFF ratio |
| --- | --- |
| U7C U8C G9U U10G C12U C13G | 1.12 |
| U8G U10A U11G C13G | 1.04 |
| U7A U8A G9C U10A U11C C12G | 1.16 |
| U7G U8C G9C U11G C12A C13G | 1.33 |
| U7C U8A G9A U10G U11A C13U | 1.03 |
| U7A G9U U10A U11A C12A | 1.43 |
| U7A U8A G9A U10C U11G C13A | 1.08 |
| U7G U8A U10C U11C C12A C13A | 1.2 |
| U7A G9C U10A U11G C12U C13U | 1.16 |
| U7A U8C G9U U10A C12U C13U | 1.42 |
| U7G U8G U10C U11A C12G C13U | 1.27 |
| U7A U8A G9U U10C U11A C12G C13G | 1.17 |
| U8C G9U U10A U11C C13A | 1.09 |
| U8C U11G C13U | 1.17 |
| U7G U8C G9U U10C U11C C12G C13G | 1.29 |
| U7A U8A G9C U10C U11A C12A | 1.06 |
| U7G U8G G9U U10G C12U C13A | 1.17 |
| U7G U8A G9U C12A C13G | 1.05 |
| U7G G9C U11G C12G C13U | 1.29 |
| U7G U8C G9U U11C C13G | 1.04 |
| U7A U10A C12G C13A | 1.31 |
| U7A U8G G9U U10A U11C C12G C13G | 1.27 |
| U7C U8A G9U U10A U11G C12U C13A | 1.16 |
| U7G G9U | 2.19 |

| Variant | aptazyme ON/OFF ratio |
| --- | --- |
| U7A U8G G9C U10C C12G C13A | 1.23 |
| G9C U11C C12U C13U | 1.14 |
| U7C U11C C13G | 1.05 |
| U7C U8A G9C U10C U11C C12A C13U | 1.05 |
| U7G U8C G9U U10C U11G C12U C13G | 1.21 |
| U7G G9C U10C U11A C13G | 1.22 |
| U8A U11G C12G C13A | 1.17 |
| U7A U8A G9U U10G U11C C13G | 1.09 |
| U7G U8A G9A U10G U11G C12U C13A | 1.4 |
| U7C U8G G9U U10A U11A | 1.34 |
| U7C U8G U10C C13U | 1.54 |
| U7C U8G U10C C13A | 1.86 |
| G9C C12A C13U | 1.35 |
| U7C U8G G9C U10G C12U C13G | 1.14 |
| U7C G9U C13U | 1.06 |
| U7A U8G G9U U10A U11A | 2.58 |
| U7C G9U U10A C12G | 1.47 |
| G9C U10G U11G C12G C13G | 1.13 |
| U7C U8C G9A U10C C12G | 1.33 |
| G9A C13G | 1.07 |
| U7A G9U U10C U11C C12U C13U | 1.07 |
| U7A U8A G9A U10G U11A C12A | 1.15 |
| U7C U8C G9C U10C U11A C12U C13G | 1.11 |
| U7C G9A U10C C13U | 1.96 |

| Variant | aptazyme ON/OFF ratio |
| --- | --- |
| U7C U8A G9U U10G U11A C13G | 1.07 |
| U7A U8C G9U U11G C12A | 1.09 |
| U7A U8A G9U U11G C13U | 1.16 |
| U7C U8A G9A U10C C12A C13A | 1.14 |
| G9U U10C U11G C13A | 1.36 |
| U7G U8C G9C U11C C13G | 1.05 |
| U8A G9U U10A U11G C12U C13G | 1.17 |
| U7G U8G G9A U10A U11G C12U C13A | 1.13 |
| U7C G9U U10C U11G C12U C13U | 1.16 |
| U7G U8A G9U U10A U11A C12A | 1.08 |
| U7C G9C U10G U11A C12G C13U | 1.09 |
| U7G U8G G9U U10A U11C C13A | 1.11 |
| U10G U11A C12A C13G | 1.06 |
| U11A C12U C13G | 1.37 |
| U7C U8G G9A U10G U11C C12G | 1.29 |
| U7C G9C U11A C13A | 1.03 |
| U8A G9A U10G U11A C12U | 1.06 |
| U7C U8C G9C U10C U11G C12G C13U | 1.11 |
| U7C G9C U10G U11G C13G | 1.11 |
| U8A G9A U10A U11G C12A C13G | 1.18 |
| U7G U8G G9U U10A C13A | 1.13 |
| U7A U8A G9C U10C C12U C13U | 1.07 |
| U8A G9C U10C U11C C13G | 1.06 |
| U8A G9A U10G C12U C13G | 1.17 |

| Variant | aptazyme ON/OFF ratio |
| --- | --- |
| U7G U8G U10C C13A | 1.33 |
| U8G U10C C13U | 1.15 |
| U7G U8A G9U U10A U11C C12A C13A | 1.1 |
| U7C G9A U10G U11A C12A C13G | 1.09 |
| U7G G9A U10C U11C C12G C13G | 1.05 |
| U7A G9A U11G C12U C13U | 1.27 |
| U7A U8G G9A U10A U11G | 1.8 |
| U7A G9C U10C U11A C13U | 1.09 |
| G9U U10C U11G C12A | 1.13 |
| U7A U8A G9U U11C C12A C13U | 1.17 |
| U11G C12U C13U | 1.11 |
| U7A U8G U10G U11A C12G C13G | 1.46 |
| U7G U8A G9U C13G | 1.06 |
| U7C U8A G9C U11C C12A C13U | 1.08 |
| U7C U8A G9A U10A U11C C12A C13G | 1.12 |
| U7G G9C U10C U11C C13U | 1.03 |
| U7C U8A G9C U10C C12U C13A | 1.06 |
| U7G U8A C12A | 1.27 |
| U7G U8C G9C U10G | 1.17 |
| U7G U8A U10C U11A C13A | 1.39 |
| U8C G9U U11A C12A C13A | 1.26 |
| U8C G9A U10G U11G C12U C13A | 1.09 |
| G9A U10A C12A C13U | 1.36 |
| U7G U11G C12U C13A | 1.14 |

| Variant | aptazyme ON/OFF ratio |
| --- | --- |
| U7C U8C G9U C12U C13G | 1.02 |
| U7A U8G G9A U11G C12G C13U | 1.52 |
| G9U U10A U11G C13G | 1.22 |
| G9U U10A U11A C12A C13A | 1.37 |
| U7A U8A G9A U11C C13U | 1.1 |
| U7A U8A G9C U10G C12U | 1.41 |
| U7A U8G G9C U11A C12A C13G | 1.37 |
| U7A U8A U10G U11A C12U C13G | 1.27 |
| U7G G9U U10A U11G C12U C13A | 1.23 |
| U8C U11C C12G | 1.34 |
| G9C U10C C12A C13U | 1.05 |
| U7G U8C G9C U10C U11A C12U C13G | 1.12 |
| U7C U8C G9U U10C U11A C13U | 1.23 |
| U7G U8G G9A U11A C12A C13U | 1.38 |
| G9A U10A U11G C13A | 1.34 |
| U8C U10A C12U C13A | 1.14 |
| U8C U10A C12U C13G | 1.11 |
| U7G U8C U10C U11A C12G C13A | 1.13 |
| U7G U8G G9C U10C C12G C13U | 1.27 |
| U7G G9U U10A U11C C12A C13U | 1.46 |
| U7A U8C G9A U10G U11G C13A | 1.25 |
| U7A U8G U10A U11C C13A | 1.18 |
| U7G U8A U10C U11G C12G | 1.49 |
| U7G G9A U11C C12U | 1.39 |

| Variant | aptazyme ON/OFF ratio |
| --- | --- |
| U7A U10G U11A C12G C13A | 1.08 |
| U8G G9U U11C C12A | 1.12 |
| U7A U8G G9C U11G C12G C13U | 1.22 |
| U7A U8C G9U U10G C12A | 1.53 |
| U7C U8G G9U U10A U11A C12U | 1.33 |
| U7G U8A G9C U10A C13G | 1.01 |
| G9A U11A C12G C13A | 1.39 |
| U7G U8A G9U U10A U11A C12A C13U | 1.04 |
| U7G U8G G9A U11A C12U C13U | 1.22 |
| U7A U8C U10G U11G C12G C13U | 1.4 |
| U7C G9A U10A U11C C12A C13G | 1.1 |
| G9U U10C U11C C13G | 1.06 |
| U7G U8G U10C C12U C13U | 1.39 |
| U7G U10G U11G C12A C13G | 1.1 |
| U8G G9C U11C C13U | 1.03 |
| U8A G9C U10A U11G C12U C13U | 1.14 |
| U7G U8G G9C U10C C12A C13U | 1.25 |
| U7C U8C G9A U11G C12A C13U | 1.59 |
| U7A U8C U11C C12U | 1.46 |
| U7G U8C G9A U10C U11A C13A | 1.18 |
| U7G U8C G9A U11G C12G C13U | 1.05 |
| U7A U8A G9A U10A C12A | 1.28 |
| U8C G9A U11A C12U C13U | 1.29 |
